Test results from PMC5967840.
One block for each substance: values may come before it.

Experiments:
Assay in all cases: AUC; sedimentation velocity (60 krpm) and sedimentation equilibrium (six rotor speeds, 30-48 krpm, single ideal species model); 325 uM peptide in PI buffer (10 mM potassium phosphate pH 7.4), 1.625 mM TCEP, 25 mM NaCl, 20 °C
CC-R4-Tri3 = biological target: CC-R4-Tri3
[1] = biological target: CC-Tri3 variant with a negatively charged E4 block at the C terminus
[2] = biological target: CC-Tri3 variant with a negatively charged E4 block at the N terminus
[3] = biological target: CC-Tri3 with tetra-lysine (K4) appended to the N terminus
CC-Tri3-K4 = biological target: CC-Tri3-K4
CC-Tri3-R4 = biological target: CC-Tri3-R4

stoichiometry N (CC-R4-Tri3): 3
Substance: CC-R4-Tri3 (peptide)

stoichiometry N [1]: 3
Substance: CC-Tri3 variant with a negatively charged E4 block at the C terminus (peptide)

stoichiometry N [2]: 3
Substance: CC-Tri3 variant with a negatively charged E4 block at the N terminus (peptide)

stoichiometry N [3]: 3
Substance: CC-Tri3 with tetra-lysine (K4) appended to the N terminus (peptide)

stoichiometry N (CC-Tri3-K4): 3
Substance: CC-Tri3-K4 (peptide)

stoichiometry N (CC-Tri3-R4): 3
Substance: CC-Tri3-R4 (peptide)
